In patent US11530273B2, “Anti-CD73 monoclonal antibody, encoding nucleic acids and method for producing” (HELMHOLTZ ZENTRUM MÜNCHEN—DEUTSCHES FORSCHUNGSZENTRUM FÜR …, priority 2017, dated 2022):

Key:
[1] = biological target: T1, CD73 protein on cancer cells (Homo sapiens, UniProt P21589); test: Flow cytometry (FACS) with 22E6 and anti-rat-IgG fluorophore-labeled secondary mAb on human cancer cell lines; assay type: binding; conditions: approx. 30 tested human cancer cell lines, e.g. U138 MG, GBM20, MDA-MB231, T47D
T1 construct: present on the surface of human cancer cells of a total of approx. 30 tested cell lines; endogenous in cells; host or cells: about 30 human cancer cell lines, e.g. U138 MG, GBM20, MDA-MB231, T47D
T1 sequence (P21589 27-549): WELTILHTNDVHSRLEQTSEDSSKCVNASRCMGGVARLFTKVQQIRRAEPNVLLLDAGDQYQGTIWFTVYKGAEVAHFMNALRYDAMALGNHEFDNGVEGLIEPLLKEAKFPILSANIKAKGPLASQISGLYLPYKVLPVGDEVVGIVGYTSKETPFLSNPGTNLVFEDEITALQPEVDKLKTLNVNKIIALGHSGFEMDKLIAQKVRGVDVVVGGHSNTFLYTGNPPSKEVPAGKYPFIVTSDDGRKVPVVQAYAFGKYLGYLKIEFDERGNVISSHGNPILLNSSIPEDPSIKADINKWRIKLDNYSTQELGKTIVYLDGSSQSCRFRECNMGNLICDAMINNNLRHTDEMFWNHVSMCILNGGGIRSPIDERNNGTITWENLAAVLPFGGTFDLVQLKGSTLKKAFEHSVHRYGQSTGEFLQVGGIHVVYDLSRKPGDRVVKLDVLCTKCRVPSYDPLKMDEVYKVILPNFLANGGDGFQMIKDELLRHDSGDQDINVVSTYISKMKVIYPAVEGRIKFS
Protocol: (§1) FIG. 3: mAb 22E6 recognizes CD73 on cancer cells. […] Shown are 4 representative cell lines of a total of approx. 30 tested cell lines. U138 MG and GBM20 are glioblastoma cell lines, MDA-MB231 and T47D are human breast cancer cell lines. (B) Immunoblot with the same cell line, using a commercial CD73 mAb. […] Input=U138 lysate.
(§2) In this example, mAb 22E6 binding affinity was characterized (FIG. 3). […] Using a special flow cytometry technique, a fluorescence-activated cell sorting (FACS) with 22E6 and an anti-rat-IgG-specific, fluorophore-labeled secondary mAb, it was shown that the protein recognized by the 22E6 mAb of the invention is present on the surface of human cancer cells of a total of approx. 30 tested cell lines. U138 MG and GBM20 are glioblastoma cell lines, MDA-MB231 and T47D are human breast cancer cell lines. In order to compare the specificity of mAb 22E6 with the specificity of a commercial CD73 mAb an immunoblot with the same cell lines (U138 MG, GBM20, MDA-MB231 and T47D) was performed using the commercial CD73 mAb as shown in FIG. 3B.

[2] = test system: peripheral blood mononuclear cells; test: TNFα release in mixed lymphocyte reactions (ELISA); assay type: cell-based; conditions: 5×10^5 PBMCs each from two donors, 22E6 50 μg/ml, 37°, 24 h, versus GSF-mAb
Protocol: 5×10^5 peripheral blood mononuclear cells each from two out of three different donors (A, B, C) were co-incubated in standard cell culture medium at 37° for 24 h with 22E6 (50 μg/ml) or a GSF-mAb (50 μg/ml) and the amount of TNFα was measured with a commercial ELISA assay.
Accordingly, 5×10^5 peripheral blood mononuclear cells (PBMCs) each from two out of three different donors (A, B, C) were co-incubated in standard cell culture medium at 37° for 24 h with 22E6 (50 μg/ml) or a GSF-mAb (50 μg/ml) and the amount of TNFα was measured with a commercial ELISA assay.

[3] = biological target: T2, CD73 on cancer derived EVs (Homo sapiens, UniProt P21589); test: ADO production by EVs from malignant ascites (inorganic phosphate, malachite green assay); assay type: biochemical; conditions: phosphate-free buffer, 1 mM AMP, 60 min, versus isotype mAb
T2 construct: from tissue; host or cells: extracellular vesicles from malignant ascites (ovarian cancer patient)
T2 sequence (P21589 27-549): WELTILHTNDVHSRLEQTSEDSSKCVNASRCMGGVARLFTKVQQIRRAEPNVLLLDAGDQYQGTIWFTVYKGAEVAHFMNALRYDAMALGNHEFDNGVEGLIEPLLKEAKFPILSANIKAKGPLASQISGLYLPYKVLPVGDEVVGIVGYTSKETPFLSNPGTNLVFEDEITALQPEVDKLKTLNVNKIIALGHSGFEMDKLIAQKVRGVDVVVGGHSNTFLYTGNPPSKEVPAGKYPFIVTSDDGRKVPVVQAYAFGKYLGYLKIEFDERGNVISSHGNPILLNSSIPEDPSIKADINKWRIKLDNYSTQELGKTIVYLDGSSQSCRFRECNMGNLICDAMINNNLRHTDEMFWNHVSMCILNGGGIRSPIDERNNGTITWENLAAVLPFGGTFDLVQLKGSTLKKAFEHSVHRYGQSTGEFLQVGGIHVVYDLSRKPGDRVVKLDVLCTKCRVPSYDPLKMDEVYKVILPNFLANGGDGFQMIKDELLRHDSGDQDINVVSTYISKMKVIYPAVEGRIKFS
Protocol: FIG. 9: 22E6 blocks ADO production by EVs from malignant ascites. EVs were incubated in phosphate-free buffer in the presence of 1 mM AMP with APCP, 22E6 or an isotype mAb for 60 min and the concentration of inorganic phosphate (Pi; produced alongside the dephosphorylation of AMP) was quantified with a malachite green assay.
Accordingly, EVs were incubated in phosphate-free buffer in the presence of 1 mM AMP with APCP, 22E6 or an isotype mAb for 60 min and the concentration of inorganic phosphate (Pi; produced alongside the dephosphorylation of AMP) was quantified with a standard malachite green assay. Based on the above it was concluded that 22E6 inhibits CD73 on cancer derived EVs.

human CLL cells = test: ADO generation by human CLL cells; assay type: cell-based
Description: APCP is a CD73 small molecule inhibitor.
(§3) Adenosine 5′-(α,β-methylene)diphosphate (APCP) is a small-molecule specific CD73 inhibitor.

CD73 protein = biological target: T3, CD73 protein (Homo sapiens, UniProt P21589); test: Immunoprecipitation of CD73 from U138 glioblastoma cell lysates followed by immunoblot with commercial CD73 mAb; assay type: binding; conditions: U138 glioblastoma lysate, versus isotype mAb
T3 construct: immunoprecipitation of the CD73 protein from lysates of U138 glioblastoma cells; endogenous in cells; host or cells: U138 glioblastoma cells (lysate)
T3 sequence (P21589 27-549): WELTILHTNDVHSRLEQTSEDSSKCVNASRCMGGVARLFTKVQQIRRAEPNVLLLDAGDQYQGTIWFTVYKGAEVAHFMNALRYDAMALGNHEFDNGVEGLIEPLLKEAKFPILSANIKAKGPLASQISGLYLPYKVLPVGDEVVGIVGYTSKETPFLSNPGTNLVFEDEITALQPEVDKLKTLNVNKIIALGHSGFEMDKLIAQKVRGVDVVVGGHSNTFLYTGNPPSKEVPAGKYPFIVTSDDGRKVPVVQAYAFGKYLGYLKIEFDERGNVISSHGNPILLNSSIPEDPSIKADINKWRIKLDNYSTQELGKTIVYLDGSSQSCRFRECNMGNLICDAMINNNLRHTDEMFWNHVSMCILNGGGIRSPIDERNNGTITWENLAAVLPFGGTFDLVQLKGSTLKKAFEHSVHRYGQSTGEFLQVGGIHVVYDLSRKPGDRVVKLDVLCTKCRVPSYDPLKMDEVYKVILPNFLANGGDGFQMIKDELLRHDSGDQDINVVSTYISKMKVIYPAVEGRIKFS
Protocol: as §1, §2

[4] = test system: Peripheral blood mononuclear cells (PBMCs); test: IFN-γ release by PBMCs (ELISA); assay type: cell-based; conditions: PBMCs from two donors incubated separately; 22E6 0.5 μg/ml and 5 μg/ml; 24 h; versus isotyp antibody
Protocol: FIG. 15: Massive release of interferon-gamma (IFN-γ) being induced by mAB 22E6 in comparison to an isotyp antibody. IFN-γ being a marker for the activation of cytotoxic T-cells. Peripheral blood mononuclear cells (PBMCs) from two different donors were incubated separately as indicated at 37° C. for 24 h. Interferon-gamma (IFN-γ) in the supernatant was then quantified by a standard ELISA assay.
Peripheral blood mononuclear cells (PBMCs) from two different donors were incubated separately in standard cell culture medium at 37^0 for 24 h with 22E6 (0.5 μg/ml and 5 μg/ml), APCP (1 μM and 5 μM), isotyp antibody (5 μg/ml), aPD-1 (5 μg/ml) and control (5 μg/ml). The amount of interferon-gamma (IFN-γ) in the supernatant was then measured with a commercial ELISA assay.

[5] = test system: CD73-positive human A375 melanoma cells; test: AMP to adenosine conversion by CD73-positive A375 melanoma cells; assay type: cell-based; conditions: A375 melanoma cells incubated with AMP for 60 min
Protocol: CD73-positive human A375 melanoma cells were incubate with AMP for 60 min and the concentration of AMP (left) and ADO (right) in the supernatant were measured. APCP is a small-molecule specific CD73 inhibitor.
as §3

[6] = biological target: T4, membrane-bound form of CD73 protein (Homo sapiens, UniProt P21589); test: Inhibitory preference: enzymatic activity of membrane-bound CD73; assay type: biochemical; conditions: FIG. 10
T4 sequence (P21589 27-549): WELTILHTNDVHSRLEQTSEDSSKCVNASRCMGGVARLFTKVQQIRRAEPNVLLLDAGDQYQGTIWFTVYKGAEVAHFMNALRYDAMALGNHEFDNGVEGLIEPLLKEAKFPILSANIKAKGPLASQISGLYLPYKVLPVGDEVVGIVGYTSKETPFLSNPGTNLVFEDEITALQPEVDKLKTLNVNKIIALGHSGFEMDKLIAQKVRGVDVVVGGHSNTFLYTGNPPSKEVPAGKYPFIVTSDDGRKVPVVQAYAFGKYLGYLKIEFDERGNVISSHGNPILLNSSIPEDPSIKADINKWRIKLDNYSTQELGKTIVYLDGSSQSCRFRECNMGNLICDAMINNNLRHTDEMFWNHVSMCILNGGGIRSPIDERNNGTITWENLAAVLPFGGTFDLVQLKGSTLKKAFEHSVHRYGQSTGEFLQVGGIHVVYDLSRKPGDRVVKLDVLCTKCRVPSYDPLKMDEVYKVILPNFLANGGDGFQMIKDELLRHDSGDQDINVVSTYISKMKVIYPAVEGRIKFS

soluble CD73 protein = biological target: T5, soluble CD73 protein (Homo sapiens, UniProt P21589); test: Inhibitory preference: enzyme activity of soluble CD73; assay type: biochemical; conditions: FIG. 10
T5 sequence (P21589 27-549 limits assumed): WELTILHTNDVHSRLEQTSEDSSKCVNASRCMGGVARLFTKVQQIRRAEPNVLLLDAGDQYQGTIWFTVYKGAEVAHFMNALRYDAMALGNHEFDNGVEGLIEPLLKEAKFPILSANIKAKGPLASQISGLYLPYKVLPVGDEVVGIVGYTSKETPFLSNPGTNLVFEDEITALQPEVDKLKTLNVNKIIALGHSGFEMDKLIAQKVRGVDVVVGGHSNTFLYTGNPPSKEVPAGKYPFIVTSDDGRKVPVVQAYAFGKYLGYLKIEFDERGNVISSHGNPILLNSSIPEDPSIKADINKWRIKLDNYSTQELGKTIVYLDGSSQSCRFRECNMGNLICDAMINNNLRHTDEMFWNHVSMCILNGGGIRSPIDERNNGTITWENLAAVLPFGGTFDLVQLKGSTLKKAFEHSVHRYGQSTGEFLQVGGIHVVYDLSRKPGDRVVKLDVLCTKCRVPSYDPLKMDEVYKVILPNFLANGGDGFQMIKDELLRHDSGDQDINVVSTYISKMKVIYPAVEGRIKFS

recognition of CD73 on the surface of cancer cells [1]: recognizes CD73 protein on cancer cells
specificity for CD73 by immunoprecipitation (CD73 protein): demonstrated the specificity of 22E6
B1: 22E6: rat monoclonal anti-CD73 antibody from immunization with GBM20 glioblastoma EVs; VH SEQ ID NO: 9, VL SEQ ID NO: 13 (antibody, listed as Rattus norvegicus, V domains shown)
VH: EVQLVESGGGLVQPGRSMKLSCAASGFTFSFYYMAWVRQAPTKGLEWVASISTGGGNTYYRDSVKGRFTISRDDAKSTLYLQMDSLRSEETATYYCARHGGDYYGYRGGYFDYWDQGVMVTVSS
VL: DIQMTQTPSSMPASLGERVTISCRASQGINNYLNWYQQKPDGTIKPLIYYTSNLQSGVPSRFSGSGSGTDYSLTISSLEPEDFAMYYCQQYDNSPYTFGAGTKLELK
modifications: (1)..(124) VH region; SITE (26)..(32) VH complementary determining region 1 (VH CDR1); SITE (52)..(57) VH complementary determining region 2 (H-CDR2); SITE (99)..(113) VH complementary determining region 3 (H-CDR3); (1)..(107) VL region; SITE (24)..(34) VL complementary determining region 1 (L-CDR1); SITE (50)..(56) VL complementary determining region 2 (L-CDR2); SITE (89)..(97) VL complementary determining region 3 (L-CDR3)
release of TNFα [2]: increases the release of TNFα
ADO production by EVs (inorganic phosphate concentration) [3]: blocks ADO production by EVs derived from malignant ascites
ADO generation (human CLL cells): inhibits ADO generation by human CLL cells
release of IFN-γ in the supernatant [4]: increases massive release of IFN-γ
adenosine production (AMP and ADO concentration in supernatant) [5]: blocks adenosine production
inhibitory preference, membrane-bound versus soluble form of CD73 [6]: inhibitory preference for enzymatic activity of a membrane-bound form of CD73 protein
effect on the enzyme activity of soluble CD73 protein (soluble CD73 protein): no or essentially no effect
